Substrate in the data set: O=[N+]([O-])c1ccc(O[C@@H]2O[C@H](CO)[C@@H](O)[C@H](O)[C@H]2O)cc1
Put plainly: purified protein. Conditions: free enzyme, 2–16 mM p-NPG, 50 mM NaAc-HAc buffer, 40 °C.

Here are results for one protein from publication PMC5278371.

B1: β-glucosidase (BG), his-tagged (Coptotermes formosanus) (protein)
chain: DDVDNDTLVTFPDDFKLGAATASYQIEGGWDADGKGPNIWDTLTHERPHLVVDRSTGDVADDSYHLYLEDVRLLKDMGAEVYRFSISWARILPEGHDNNVNEAGIEYYNKLIDALLRNGIEPMVTMYHWDLPQKLQDLGGWPNRILAKYAENYARVLFSNFGDRVKQWLTFNEPLTFMDAYASDTGMAPSVDTPGIGDYLTAHTVILAHANIYRLYEREFREEQQGQVGIALNIHWCEPETGSPKDVEACERYQQFNLGIYAHPIFSENGDYPSVLKARVDANSASEGYTTSRLPKFTPEEVAFVNGTYDFLGLNFYTAVVGRDGVEGEPPSRYRDMGTITSQDPEWPESASSWLRVVPWGFRKELNWIANEYGNPPIFITENGFSDYGGVNDTNRVLYYTEHLKEMLKAIHIDGVNVIGYTAWSLIDNFEWLRGYTERFGIHAVNFIDPSRPRTPKESARVLTEIFKTRQIPERFRD
Regarding B1, the Km is recorded as 4.2 ± 0.3 mM, the kcat is 58.8 s⁻¹ and the kcat/Km was 14000 M⁻¹ s⁻¹.
